From the supplement of paper PMC12764529
± gives the half width of the 95% confidence interval.

How the values were obtained:
[1] = folding stability dG unfold (combined trypsin and chymotrypsin); higher = more stable
How it was run: (§1)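 Unfolding free energy was derived, per protease or combined, by relating Bayesian-fitted K50 values from sequencing counts to a sequence-predicted unfolded-state K50 and a shared folded-state K50. The underlying digests exposed cysteine-free mini-proteins under 80 residues, in a PA-tagged cDNA display construct, to trypsin and chymotrypsin at 11 threefold-diluted concentrations and to a no-protease condition. A filter kept only designs with AlphaFold2 dimer inter-PAE above 15.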

[2] = folding stability dG unfold from chymotrypsin proteolysis; higher = more stable
How it was run: as §1

[3] = folding stability dG unfold from trypsin proteolysis; higher = more stable
How it was run: as §1

Sequence	folding stability dG unfold [1]	folding stability dG unfold [2]	folding stability dG unfold [3]
SAGGSAGGSAGGKTIVVELEDGSKATITVDEDGNVTVEVYDEKTGEKKTFTIPAEALKPSAGGSAGGSAGGS [r10_838_TrROS_Hall]	2.73 ± 0.16 kcal/mol	2.95 ± 0.066 kcal/mol	2.53 ± 0.16 kcal/mol
SAGGSAGGSAGGKTLRIKVEETEYVVLFPNTGRLLVIPPGYEAEIELDDAPDVLILGRPPSAGGSAGGSAGG [r11_939_TrMRF]	1.34 ± 0.13 kcal/mol	1.79 ± 0.16 kcal/mol	0.123 ± 0.18 kcal/mol
SAGGSAGGSAGGKTLTLVFKTKEEAEEAAKKLGFKKVEVKEFKNEDGEKYLVVKIELKPSAGGSAGGSAGGS [r10_494_TrROS_Hall]	2.94 ± 0.22 kcal/mol	3.1 ± 0.047 kcal/mol	2.43 ± 0.058 kcal/mol
SAGGSAGGSAGGKTVLISLEDLEALKKLPPGAKVKIEPIKTPEGTVYRVNVETGKIEKVPSAGGSAGGSAGG [r7_765_TrROS_Hall]	0.0992 ± 0.22 kcal/mol	0.175 ± 0.26 kcal/mol	-0.24 ± 0.21 kcal/mol
SAGGSAGGSAGGKTVWIPWDDLEELKDLPPGKKRTIHLWNPKNGRWYRITVTDNNIEIERSAGGSAGGSAGG [r7_765_TrROS]	2.86 ± 0.078 kcal/mol	3.088 ± 0.013 kcal/mol	2.36 ± 0.061 kcal/mol
SAGGSAGGSAGGKTYTAEELRSLPPGAKITLADGKVIEVSIEQLEKEIKPGDTVRIERVPSAGGSAGGSAGG [r7_643_TrROS_Hall]	0.172 ± 0.09 kcal/mol	-0.404 ± 0.17 kcal/mol	0.542 ± 0.043 kcal/mol
SAGGSAGGSAGGKTYTLTFKAKIEVSEDDVVVITPPNGKKLVVPKENVKVHPDGTVTVTGSAGGSAGGSAGG [r7_684_TrMRF]	1.19 ± 0.2 kcal/mol	1.27 ± 0.2 kcal/mol	1.28 ± 0.097 kcal/mol
SAGGSAGGSAGGKVEEVEKLAEELEKELGVDIGEVEVLDHPDKFRYRIRIPDLDLDLEFSAGGSAGGSAGGS [r10_161_TrMRF]	-0.103 ± 0.11 kcal/mol	-0.0226 ± 0.17 kcal/mol	-0.529 ± 0.18 kcal/mol
SAGGSAGGSAGGKVKVLSVFELPNNKRLVLIETPSGKKILIVTDSSDPDKVKEKAKEIASAGGSAGGSAGGS [r10_472_TrMRF]	1.73 ± 0.037 kcal/mol	1.822 ± 0.017 kcal/mol	1.54 ± 0.02 kcal/mol
SAGGSAGGSAGGKVLHVPYENIEEKIKEAEEKYPNKEILIHAYLPNGKLLKTIKIKVKKSAGGSAGGSAGGS [r10_741_TrMRF]	1.23 ± 0.053 kcal/mol	1.18 ± 0.03 kcal/mol	1.29 ± 0.026 kcal/mol
SAGGSAGGSAGGKVSEIDLSGDKVVVTVKGPGGSVVREVHPDKTLEQVLDELLENPELVDSAGGSAGGSAGG [r7_373_TrMRF]	1.13 ± 0.057 kcal/mol	1.55 ± 0.05 kcal/mol	-0.176 ± 0.1 kcal/mol
SAGGSAGGSAGGKWHLITFTITMEMYVMKFDPENGKWKPVDPIPMEIQITFLIPPGDPISAGGSAGGSAGGS [r10_610_TrROS]	4.65 ± 0.47 kcal/mol	5.08 ± 0.2 kcal/mol	3.77 ± 0.25 kcal/mol
SAGGSAGGSAGGKWIMVDSPEDIKEFAEDQGYKIKVDNVHPFPGDKNHYMVWIEIEPPGSAGGSAGGSAGGS [r10_126_TrROS]	1.18 ± 0.14 kcal/mol	1.13 ± 0.18 kcal/mol	1.19 ± 0.12 kcal/mol
SAGGSAGGSAGGKYKILKIEKYKLPNGGYYYKALVYEEENGEWKEIYAKANSAKNFKFESAGGSAGGSAGGS [r10_326_TrMRF]	1.08 ± 0.1 kcal/mol	1.16 ± 0.11 kcal/mol	0.828 ± 0.049 kcal/mol
SAGGSAGGSAGGLEIELPNARIRIEELEGEPRRIRVRVEFFPPDGGRLSAEAEFDILPDLSAGGSAGGSAGG [r17_184_TrMRF]	2.57 ± 0.092 kcal/mol	2.5 ± 0.08 kcal/mol	2.66 ± 0.056 kcal/mol
SAGGSAGGSAGGLEKLVELLAPGKPLEVLRIDPTPTYVRIVVRHPDYPVDTVILADPDVISAGGSAGGSAGG [r7_303_TrMRF]	-0.0768 ± 0.051 kcal/mol	-0.617 ± 0.11 kcal/mol	0.237 ± 0.046 kcal/mol
SAGGSAGGSAGGLLEELKAKGYTVLSTPVPSPPDGVPTRTVLAKKGEGTVTFVVPAALLSAGGSAGGSAGGS [r10_35_JUSTAS]	0.287 ± 0.23 kcal/mol	0.525 ± 0.17 kcal/mol	-0.172 ± 0.18 kcal/mol
SAGGSAGGSAGGLPEGWVLKTETKTVKLKVKVKVDGKEYEFEVEVKVTRIELVPKEELESAGGSAGGSAGGS [r10_300_TrROS_Hall]	3.76 ± 0.11 kcal/mol	4.08 ± 0.2 kcal/mol	3.04 ± 0.23 kcal/mol
SAGGSAGGSAGGLPKPVTVTLSRPEGGETLTLTFPSGTTPEEVRAAVEAEPDLSILSISSSAGGSAGGSAGG [r7_624_JUSTAS]	1.1 ± 0.059 kcal/mol	0.892 ± 0.063 kcal/mol	1.2 ± 0.074 kcal/mol
SAGGSAGGSAGGLPPFDLGFESVEVEEVFPDGPVVVTVRLPDRTVRLVVVGGRIVRVEPSSAGGSAGGSAGG [r17_396_TrMRF]	1.75 ± 0.085 kcal/mol	1.97 ± 0.048 kcal/mol	1.68 ± 0.036 kcal/mol
SAGGSAGGSAGGLRAKIVEIKEVKVKKLYKDPETNEWYEEEKTVKVIKIKIEPAKPGEKISAGGSAGGSAGG [r17_530_TrROS_Hall]	0.947 ± 0.13 kcal/mol	1.14 ± 0.044 kcal/mol	0.537 ± 0.08 kcal/mol
